The values that follow come from the supplement of paper PMC7125110.

± gives the standard error. For some assays here: This sample holds only a part of the variants without activity.

B1: glmS ribozyme (parent)
chain: AUAAAAGCGCCAGAACUACAGAAAUGUAGUUGACGAGGAGGAGGUUUAUCGAAUUUUCGGCGGAUGCCUCCAAA

What all share (conditions): with glucosamine-6-phosphate
Series [1] covers variants of B1. Briefly: kcat; higher = faster cleavage; RNA array. The gist of the method:
(§1)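 A hybridised Cy3 probe tracked barcoded ribozyme variants, transcribed in situ by E. coli RNA polymerase on sequenced MiSeq chips, at 37 °C. The variants received 40 μM to 10 mM glucosamine-6-phosphate in HEPES/KCl/Mg(OAc)2 buffer. kobs came from decay fits and kcat and KM from weighted Michaelis–Menten fits.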

Series [2] covers variants of B1. Briefly: KM; higher = weaker cofactor use; RNA array. A digest of the protocol:
as §1

The variants in series [3] derive from B1. The experiment in a line: self-cleavage kobs at 40 uM GlcN6P; higher = faster cleavage; RNA array. A digest of the protocol: as §1
The variants in series [4] derive from B1. The experiment in a line: self-cleavage kobs at 160 uM GlcN6P; higher = faster cleavage; RNA array. The gist of the method:
as §1

In series [5] the parent is B1. The experiment in a line: self-cleavage kobs at 640 uM GlcN6P; higher = faster cleavage; RNA array. A digest of the protocol:
as §1

In series [6] the parent is B1. Briefly: self-cleavage kobs at 2500 uM GlcN6P; higher = faster cleavage; RNA array. The gist of the method: as §1
Series [7] covers variants of B1. The experiment in a line: self-cleavage kobs at 10000 uM GlcN6P; higher = faster cleavage; RNA array. The gist of the method: as §1

The term kcat denotes the maximal rate divided by the concentration of active sites. Broadly, the KM is the concentration of substrate that gives half-maximal velocity. Consider C16G G66A, for which, in series [1], the kcat worked out at 0.00183 ± 0.0004 s⁻¹. Also, the Michaelis constant (KM) in series [2] was determined as 1140 ± 380 µM. In addition, the “self-cleavage kobs at 40 uM GlcN6P” value in series [3] came out at 7.41e-05 ± 1.1e-05 s⁻¹. In addition, the “self-cleavage kobs at 160 uM GlcN6P” value in series [4] turned out to be 0.000199 ± 5.6e-05 s⁻¹. In addition, in series [5], the “self-cleavage kobs at 640 uM GlcN6P” value was determined as 0.000593 ± 8.9e-05 s⁻¹. The “self-cleavage kobs at 2500 uM GlcN6P” value in series [6] came out at 0.00111 ± 0.00019 s⁻¹. For the same variant, the “self-cleavage kobs at 10000 uM GlcN6P” value in series [7] came to 0.00218 ± 0.00038 s⁻¹.

For the variant U57G C71G, in series [1], the turnover number (kcat) was determined as 2.02e-05 ± 3.8e-06 s⁻¹.

For the variant A15C U46G, in series [1], the catalytic constant (kcat) turned out to be 0.00166 ± 0.00022 s⁻¹. Further, the Michaelis-Menten constant (KM) in series [2] was 3240 ± 690 µM. In addition, the “self-cleavage kobs at 160 uM GlcN6P” value in series [4] was found to be 8.08e-05 ± 2.2e-05 s⁻¹. For the same variant, in series [5], the “self-cleavage kobs at 640 uM GlcN6P” value came to 0.000271 ± 4.6e-05 s⁻¹. Further, the “self-cleavage kobs at 2500 uM GlcN6P” value in series [6] amounted to 0.000681 ± 0.00011 s⁻¹. Moreover, the “self-cleavage kobs at 10000 uM GlcN6P” value in series [7] turned out to be 0.00129 ± 0.00019 s⁻¹.

A12C U30C: the kcat in series [1] came out at 0.00413 ± 0.0012 s⁻¹. Besides, the KM in series [2] is 3850 ± 1500 µM. Further, the “self-cleavage kobs at 40 uM GlcN6P” value in series [3] amounted to 6.11e-05 ± 7.7e-06 s⁻¹. In series [4], the “self-cleavage kobs at 160 uM GlcN6P” value stood at 0.000121 ± 2e-05 s⁻¹. In addition, the “self-cleavage kobs at 640 uM GlcN6P” value in series [5] amounted to 0.000707 ± 9.2e-05 s⁻¹. Besides, in series [6], the “self-cleavage kobs at 2500 uM GlcN6P” value was determined as 0.00145 ± 0.0002 s⁻¹. Moreover, the “self-cleavage kobs at 10000 uM GlcN6P” value in series [7] is 0.00306 ± 0.00028 s⁻¹.

As to U31A U55G C67G, in series [1], the kcat stood at 0.000655 ± 6.8e-05 s⁻¹. The KM in series [2] amounted to 428 ± 100 µM. For the same variant, the “self-cleavage kobs at 40 uM GlcN6P” value in series [3] was found to be 5.68e-05 ± 1.9e-05 s⁻¹. Further, the “self-cleavage kobs at 160 uM GlcN6P” value in series [4] came to 0.000166 ± 5.4e-05 s⁻¹. Moreover, the “self-cleavage kobs at 640 uM GlcN6P” value in series [5] stood at 0.000467 ± 0.00012 s⁻¹. In series [6], the “self-cleavage kobs at 2500 uM GlcN6P” value came out at 0.000505 ± 9.5e-05 s⁻¹. In addition, in series [7], the “self-cleavage kobs at 10000 uM GlcN6P” value turned out to be 0.000735 ± 0.00019 s⁻¹.

With G32A U47C, the turnover number (kcat) in series [1] came to 0.000343 ± 5.5e-05 s⁻¹. Besides, in series [2], the KM was 2450 ± 760 µM. Also, the “self-cleavage kobs at 640 uM GlcN6P” value in series [5] worked out at 7.19e-05 ± 1.5e-05 s⁻¹. In addition, the “self-cleavage kobs at 2500 uM GlcN6P” value in series [6] was determined as 0.000185 ± 2.3e-05 s⁻¹. Moreover, the “self-cleavage kobs at 10000 uM GlcN6P” value in series [7] was 0.000258 ± 4.4e-05 s⁻¹.

On to U57A C61G G62C A64G U65A G66U C67G U69C, for which, in series [1], the turnover number (kcat) is 3.85e-05 ± 9.7e-06 s⁻¹. Moreover, the “self-cleavage kobs at 2500 uM GlcN6P” value in series [6] amounted to 4.83e-05 ± 2e-05 s⁻¹.

On to U31G C68U, for which the turnover number (kcat) in series [1] worked out at 0.00134 ± 0.00023 s⁻¹. Besides, the Michaelis-Menten constant (KM) in series [2] is 2020 ± 590 µM. Further, the “self-cleavage kobs at 40 uM GlcN6P” value in series [3] is 3.14e-05 ± 7.7e-06 s⁻¹. For the same variant, in series [4], the “self-cleavage kobs at 160 uM GlcN6P” value was determined as 0.000119 ± 2.9e-05 s⁻¹. The “self-cleavage kobs at 640 uM GlcN6P” value in series [5] turned out to be 0.000312 ± 4.3e-05 s⁻¹. For the same variant, the “self-cleavage kobs at 2500 uM GlcN6P” value in series [6] came out at 0.000606 ± 0.0001 s⁻¹. The “self-cleavage kobs at 10000 uM GlcN6P” value in series [7] is 0.00126 ± 0.00015 s⁻¹.

On to A33U U56A, for which, in series [1], the kcat came to 3.49e-05 ± 1.6e-05 s⁻¹.

Turning to A15C A53U, in series [1], the catalytic constant (kcat) stood at 0.00401 ± 0.00066 s⁻¹. Besides, the KM in series [2] amounted to 1690 ± 400 µM. In series [3], the “self-cleavage kobs at 40 uM GlcN6P” value was 9.37e-05 ± 1.2e-05 s⁻¹. The “self-cleavage kobs at 160 uM GlcN6P” value in series [4] is 0.000395 ± 9e-05 s⁻¹. In addition, the “self-cleavage kobs at 640 uM GlcN6P” value in series [5] was determined as 0.00119 ± 0.00025 s⁻¹. The “self-cleavage kobs at 2500 uM GlcN6P” value in series [6] stood at 0.00184 ± 0.00036 s⁻¹. In series [7], the “self-cleavage kobs at 10000 uM GlcN6P” value came to 0.00391 ± 0.00049 s⁻¹.

Turning to U30A G41C, the turnover number (kcat) in series [1] is 4.61e-05 ± 3.9e-06 s⁻¹. Besides, the Michaelis constant (KM) in series [2] came out at 5270 ± 1100 µM. In addition, in series [3], the “self-cleavage kobs at 40 uM GlcN6P” value is less than 1e-05 s⁻¹.

Take G37C U49G: the catalytic constant (kcat) in series [1] is less than 1e-05 s⁻¹.

Turning to C16U U54G, the catalytic constant (kcat) in series [1] came to 0.0201 ± 0.0063 s⁻¹. In series [2], the Michaelis-Menten constant (KM) came out at 1720 ± 730 µM. For the same variant, the “self-cleavage kobs at 40 uM GlcN6P” value in series [3] came to 0.000682 ± 0.00011 s⁻¹. The “self-cleavage kobs at 160 uM GlcN6P” value in series [4] turned out to be 0.00138 ± 0.00023 s⁻¹. Also, the “self-cleavage kobs at 640 uM GlcN6P” value in series [5] came to 0.00575 ± 0.00092 s⁻¹. For the same variant, the “self-cleavage kobs at 2500 uM GlcN6P” value in series [6] came to 0.0115 ± 0.0019 s⁻¹. Besides, the “self-cleavage kobs at 10000 uM GlcN6P” value in series [7] was determined as 0.0185 ± 0.0042 s⁻¹.

G38U C67A: in series [1], the catalytic constant (kcat) came to 1.4e-05 ± 1.8e-06 s⁻¹.

Regarding G32C G41U, in series [1], the kcat was less than 1e-05 s⁻¹. The “self-cleavage kobs at 40 uM GlcN6P” value in series [3] is less than 1e-05 s⁻¹. The “self-cleavage kobs at 160 uM GlcN6P” value in series [4] was less than 1e-05 s⁻¹.

As for G29A U56G, the turnover number (kcat) in series [1] came out at 0.00237 ± 0.00067 s⁻¹. Also, the Michaelis constant (KM) in series [2] was found to be 1720 ± 760 µM. Besides, the “self-cleavage kobs at 40 uM GlcN6P” value in series [3] came to 6.78e-05 ± 1.3e-05 s⁻¹. The “self-cleavage kobs at 640 uM GlcN6P” value in series [5] is 0.000577 ± 9.1e-05 s⁻¹. Besides, the “self-cleavage kobs at 2500 uM GlcN6P” value in series [6] was 0.00129 ± 0.00021 s⁻¹. In addition, the “self-cleavage kobs at 10000 uM GlcN6P” value in series [7] was determined as 0.00257 ± 0.00053 s⁻¹.

Consider C10A G13A, for which the kcat in series [1] is less than 1e-05 s⁻¹. In addition, the “self-cleavage kobs at 40 uM GlcN6P” value in series [3] is less than 1e-05 s⁻¹. The “self-cleavage kobs at 160 uM GlcN6P” value in series [4] is less than 1e-05 s⁻¹.
